Data: US20140234872A1

Biological target: GST-SHP-1 ΔN+CSH2 (amino acids 276-end) (human) (UniProt P29350)
Test: GST pulldown (FIG. 20B)

Sequence of GST-SHP-1 ΔN+CSH2 (amino acids 276-end) (human) (P29350 276-595, stated change not applied): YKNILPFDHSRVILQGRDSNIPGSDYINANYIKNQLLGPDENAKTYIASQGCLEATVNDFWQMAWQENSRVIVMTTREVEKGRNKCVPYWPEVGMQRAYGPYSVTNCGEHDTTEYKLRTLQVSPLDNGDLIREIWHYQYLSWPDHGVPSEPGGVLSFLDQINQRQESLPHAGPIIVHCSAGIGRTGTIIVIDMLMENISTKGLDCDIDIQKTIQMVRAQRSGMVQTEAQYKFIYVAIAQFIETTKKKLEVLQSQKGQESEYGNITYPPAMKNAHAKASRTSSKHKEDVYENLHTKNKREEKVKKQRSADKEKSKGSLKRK

B1: His-GIV-CT (aa 1660-1870), wild-type, not phosphorylated (mock- or sham-treated) (protein, not shown: small tags and cut ends)
chain: SETLESRHHKIKTGSPGSEVVTLQQFLEESNKLTSVQIKSSSQENLLDEVMKSLSVSSDFLGKDKPVSCGLARSVSGKTPGDFYDRRTTKPEFLRPGPRKTEDTYFISSAGKPTPGTQGKIKLVKESSLSRQSKDSNPYATLPRASSVISTAEGTTRRTSIHDFLTKDSRLPISVDSPPAAADSNTTAASNVDKVQESRNSKSRSREQQSS
  reduction of binding against full length SHP-1: 80%
